# Laboratory results from paper PMC10851751, “Characterization and insight mechanism of an acid-adapted β-Glucosidase from Lactobacillus paracasei and its application in bioconversion of glycosides” (Frontiers in Bioengineering and Biotechnology, 2024).
# What was measured:
# purified protein = substrate: O=[N+]([O-])c1ccc(O[C@@H]2O[C@H](CO)[C@@H](O)[C@H](O)[C@H]2O)cc1; experiment: purified protein; conditions: pH 5.5, 30°C, 0.5-15 mM substrate, authors note sigmoidal v0 vs [S]
# [1] = substrate: OC[C@H]1O[C@@H](Oc2cc(O)cc(/C=C/c3ccc(O)cc3)c2)[C@H](O)[C@@H](O)[C@@H]1O; experiment: HPLC of glucose or aglycone, Michaelis-Menten fit; format: biochemical, Lacticaseibacillus paracasei; conditions: pH 5.5, 30°C, 0.5-15 mM substrate
# Text: (§1) HPLC of glucose or aglycone, Michaelis-Menten fit on LpBgla
# [2] = substrate: COC(=O)C1=CO[C@@H](O[C@@H]2O[C@H](CO)[C@@H](O)[C@H](O)[C@H]2O)[C@@H]2C(CO)=CC[C@H]12; experiment: HPLC of glucose or aglycone, Michaelis-Menten fit; format: biochemical, Lacticaseibacillus paracasei; conditions: pH 5.5, 30°C, 0.5-15 mM substrate
# Text: as §1
# [3] = substrate: OCc1ccccc1O[C@@H]1O[C@H](CO)[C@@H](O)[C@H](O)[C@H]1O; experiment: HPLC of glucose or aglycone, Michaelis-Menten fit; format: biochemical, Lacticaseibacillus paracasei; conditions: pH 5.5, 30°C, 0.5-15 mM substrate
# Text: as §1
# [4] = substrate: O=c1ccc2cc(O[C@@H]3O[C@H](CO)[C@@H](O)[C@H](O)[C@H]3O)c(O)cc2o1; experiment: HPLC of glucose or aglycone, Michaelis-Menten fit; format: biochemical, Lacticaseibacillus paracasei; conditions: pH 5.5, 30°C, 0.5-15 mM substrate
# Text: as §1
# [5] = substrate: OC[C@H]1O[C@@H](Oc2ccc(O)cc2)[C@H](O)[C@@H](O)[C@@H]1O; experiment: HPLC of glucose or aglycone, Michaelis-Menten fit; format: biochemical, Lacticaseibacillus paracasei; conditions: pH 5.5, 30°C, 0.5-15 mM substrate
# Text: as §1
protein,measurement,setting,value
"LpBgla (Lacticaseibacillus paracasei ATCC 334) (protein, full-length gene (2,388 bp, 796 amino acids), pET28a, His-tagged, E. coli BL21(DE3), Ni-NTA; monomer) MGVVVSNFHLAKITAEEKVKLTSGKDFWTSEHLADKGIPSFRMSDGPHGLRYQALAADHLGINDSVPSTSFPTASASAAAWDPDLIQAMGKAIGLEAQSLGVDMVLGPGVNMKRNPLCGRNFEYFSEDPFLAGKLGAAWINGIQSQGIAACLKHFAANNQENDRLSSDSLVDPTALHEIYLEAFRIAVTESHPEAVMCSYNKINGTYASDNLYLMTQVLRQQFGFGGAVITDWGALNDKVAALNAGTDLEMPGDDHLFDGEALQAYQQGTLKLASLDRAVTKIAEIARKQRPKFQGSREQLLQANGQLAQKIAESAIVLLKNEAALLPLQATDTVAVIGELAKATRFQGAGSSHINASEIVSVLDGLKQKKVSFDYAAGYRLDDQDDSQATAEALALARNHDKVVFVAGLPDNYESEGFDRQNMALPKVQNDLLQAVTAVNPNVIVLLVAGAPVELPWVDQVKAVVNLSLGGERIGAAAANVLTGAVNPSGKLAESYPLKYQDVPSADVYDKKPRSVPYVESTYIGYRYYDKAKVPVAFPFGFGLSYTSFALKNIQLSSDHVTDDQPLTISLQVTNTGQVDGAEVVQVYVQEQQPRPLRPEKSLKAFKKVFVKAGQTVNVALELKAQAFKEWREQTQTWVLPEAQKAIAVGTSVTNIDAVLPVSFTGETFNNFATIPNWYTTLSGKPSVQDFEQLTDQKVPAPHEFVPGEFTRLNTPREMKKHSLLLRLVAWITVKIRTKDYIDKQGPEAKFQQAIVLDTPLIRLAQQASGALKLSMVDRLVAAANHQYVKMIFR",Km,purified protein,1440 ± 80 µM
same,kcat,purified protein,3982 ± 14 s⁻¹
same,kcat/Km,purified protein,2.76e+06 M⁻¹ s⁻¹
same,Km,[1],5710 ± 100 µM
same,kcat,[1],1730 ± 45 s⁻¹
same,kcat/Km,[1],303000 M⁻¹ s⁻¹
same,Km,[2],2870 ± 50 µM
same,kcat,[2],2520 ± 23 s⁻¹
same,kcat/Km,[2],878000 M⁻¹ s⁻¹
same,Km,[3],2250 ± 10 µM
same,kcat,[3],2970 ± 88 s⁻¹
same,kcat/Km,[3],1.32e+06 M⁻¹ s⁻¹
same,Km,[4],3610 ± 80 µM
same,kcat,[4],2210 ± 38 s⁻¹
same,kcat/Km,[4],611000 M⁻¹ s⁻¹
same,Km,[5],1920 ± 30 µM
same,kcat,[5],3570 ± 72 s⁻¹
same,kcat/Km,[5],1.86e+06 M⁻¹ s⁻¹
